In general, koff refers to the rate constant with which the complex falls apart.

In this experiment the target is wild-type SARS-CoV-2 Spike receptor-binding domain (SARS-CoV-2, UniProt P0DTC2 319-527). The experiment in a line: SPR. (Surface plasmon resonance follows binding to a sensor surface in real time, without labels.)

Regarding CPWNAYECDRHCVSKGYTGGNCRGKIRQTCHCY [(ΔGFG)AMSIN], the koff worked out at 0.0223 s⁻¹.

The values above are taken from publication PMC10315472 (2023).
